Test results reported in patent US20170173114A1, “METHODS AND COMPOSITIONS FOR INDUCTION OF UCP1 EXPRESSION” (Joslin Diabetes Center, Inc., priority 2014, published 2017).

How the values were obtained:
Format in all cases: cell-based, murine
[1] = system: UCP1 and PTGS2; assay: UCP1 and PTGS2 mRNA in WT-1 cells undergoing adipocyte differentiation; conditions: after induction media; 200 ng/mL FGF or 3.3 nM BMP7, 2 days
Method: In a separate experiment investigating the ability of FGF proteins to induce UCP1 expression in cells undergoing adipocyte differentiation, WT-1 preadipocyte cells were differentiated by culturing in growth media supplemented with insulin (20 nM) and triiodothyronine (T3, 1 nM) for 3 days, followed by incubation in an induction media (growth medium supplemented 20 nM insulin, 1 nM T3, 0.5 mM isobutyl-methylxanthine, 5 μM dexamethasone) for 2 days. The cell were then exposed to BMP7 (3.3 nM) or 200 ng/mL of FGF2, FGF6 or, FGF9 in growth media supplemented with insulin (20 nM) and triodothyronine (T3, 1 nM) for 2 additional days. Cells were harvested and UCP1 and PTGS2 mRNA expression levels were determined according to the quantitative RT-PCR assay described above. Experiments were performed in triplicate and the data presented as mean+/−SEM.

[2] = system: UCP1; assay: UCP1 mRNA expression (Q-RT-PCR) in WT-1 brown preadipocytes; conditions: for expression of UCP1: 200 ng/mL with insulin and T3, three days
Method: (§1) Total RNA was isolated with QIAzol lysis reagent (Qiagen, Valencia, Calif.) and purified by RNeasy Mini columns (Qiagen) following the manufacture's instructions. cDNA was prepared from total RNA using the Advantage RT-PCR kit (BD Biosciences, Palo Alto, Calif.) according to manufacturer's instructions. Diluted cDNA was used in a PCR reaction with SYBR Green Master Mix (Applied Biosystems, Foster City, Calif.) and primers specifically designed for detection of the gene of interest. PCR reactions were run in duplicate for each sample and quantitated in the ABI Sequence Detection System (Applied Biosystems). Data were expressed as arbitrary units after normalization to levels of expression of internal controls for each sample. Sequences of primers for specific genes are each obtained from the published literature or designed using publically available gene sequence databases. Unless otherwise indicated, gene expression data described in the examples below was obtained using QPCR.
The effect of FGF6 on differentiation of WT-1 murine brown preadipocytes was also examined. WT-1 cells can be induced to undergo brown adipocyte differentiation, characterized by lipid accumulation and expression of adipogenic and brown fat markers, as described above (Klein et al. (1999) J Biol Chem 274:34795; Tseng et al. (2005) Nat Cell Biol 7:601). WT-1 cells were treated with FGF6 in growth media (DMEM+10% FBS), a vehicle control (“control” or “C” referred to in FIGS. 3A-D), or induction media (“induction” or “I” referred to in FIGS. 3A-D) as described above for seven days. Following the treatment, cells were examined for the color of the culture media in combination with oil Red O staining, expression of adipogenic markers, expression of brown fat markers, immunofluorescent staining of cells with UCP1 and DPAI, and Western blot analysis to determine the presence of UCP1 and β-tubulin. The results are described in FIGS. 3A to 3D.
UCP1 mRNA expression in brown adipocyte cells was determined at FGF6 concentrations ranging from 0 to 300 ng/ml in the absence of induction cocktail.
In order to determine the length of time necessary to induce UCP1 expression upon exposure to of cells to FGF6, an experiment was performed whereby FGF6 was administered to brown preadipocytes at a concentration of 200 ng/ml and UCP1 expression was determined. FGF21 and a control were also used in the time course experiment. FGF21, a member of the endocrine FGF ligands that has been implicated in the browning of white fat (Fisher F. M. et al., Genes Dev. 26:271-281, 2012). […] FGF6 could acutely induce a significant increase of UCP1 expression as early as 4 hours after a 200 ng/ml dose, as described in FIG. 4B. At 24 hours, the fold-induction of UCP1 mRNA by FGF6 reached 700-fold higher than the untreated cells, as described in FIG. 4B.
To assess FGF6's role in the regulation of mitochondrial activity, FGF6 was stably expressed in WT-1 brown preadipocytes and 3T3-F442A white preadipocytes. Stable cells were generated by viral infection followed by drug selection.
FGF2, FGF6 and FGF9 were used at a dosage of 50 ng/mL, 100 ng/mL, 200 ng/mL or 300 ng/mL. FGF21 was used at the dosage of 50 ng/ml and 500 ng/mL. The concentration of BMP7 was 3.3 nM. RNA was isolated and UCP1 and PPARγ expression levels were evaluated by quantitative reverse transcription polymerase chain reaction (Q-RT-PCR) analysis after 24 hours (i.e., 1 day) (FIG. 14A), 2 days (FIG. 14B), 5 days (FIG. 14C) and 7 days (FIG. 14D) of treatment. All experiments were performed triplicate and the data are presented as mean+/−SEM.
FGF2, FGF6 and FGF9 were used at a dosage of 200 ng/mL. FGF21 was used at a dosage of 500 ng/mL. The concentration of BMP7 was 3.3 nM. mRNA was isolated and UCP1 and PPARγ expression levels were evaluated by quantitative reverse transcription polymerase chain reaction (Q-RT-PCR) analysis after 24 hours (i.e., 1 day), 2 days, 5 days and 7 days of treatment (FIG. 15). […]

[3] = system: PTGS2 (COX2); assay: PTGS2 mRNA / COX2 protein expression in WT-1 brown preadipocytes; conditions: for PTGS2 mRNA expression relative to the control: 200 ng/mL with insulin and T3, three days
Method: as §1
Cells were harvested in lysis buffer (50 mM HEPES, 137 mM NaCl, 1 mM MgCl2, 1 mM CaCl2, 10 mM Na2P2O7, 10 mM NaF, 2 mM EDTA, 10% glycerol, 1% Igepal CA-630, 2 mM vanadate, 10 μg/ml of leupeptin, 10 μg/ml of aprotinin, 2 mM phenylmethylsulfonyl fluoride; pH 7.4). After lysis, lysates were clarified by centrifugation at 12,000×g for 20 min at 4° C., the amount of protein in the supernatants was determined by the Bradford Protein Assay (Bio-Rad Laboratories, Hercules, Calif.). Proteins were directly solubilized in Laemmli sample buffer. Equal amounts of lysates were separated by sodium dodecyl sulfate-polyacrylamide gel electrophoresis and transferred to Immobolin-P membranes. Membranes were blocked overnight at 4° C. and incubated with the indicated antibody for 2 hours at room temperature. Specifically bound primary antibodies were detected with peroxidase-coupled secondary antibody and enhanced chemiluminescence (ECL, Amersham Biosciences, Piscataway, N.J.).
To determine if FGF4, FGF5, FGF6, FGF10, FGF16, FGF17, FGF18 or FGF20 induced either UCP1 mRNA or PTGS2 mRNA expression, murine brown preadipocyte WT-1 cells (Tseng et al., Nat. Cell. Biol. (2005) 7(6):601-611) were grown in growth media (DMEM-high glucose+10% FBS) supplemented with FGF4, FGF5, FGF6, FGF10, FGF16, FGF17, FGF18, FGF20 or buffer (control) in combination with insulin (20 nM) and triidothyronine (T3, 1 nM) for three days. All FGFs were used at a dosage of 200 ng/mL. mRNA was isolated and UCP1 and PTGS2 gene expression levels were evaluated by quantitative reverse transcription polymerase chain reaction (Q-RT-PCR) analysis. All experiments were performed triplicate and the data are presented as mean+/−SEM.
To determine if FGF1 or FGF10 induce UCP1 mRNA expression or PTGS2 mRNA expression, murine brown preadipocyte WT-1 cells (Tseng et al., Nat. Cell. Biol. (2005) 7(6):601-611) were grown in growth media (DMEM-high glucose+10% FBS) supplemented with FGF1, FGF10 or vehicle (control) in combination with insulin (20 nM) and triidothyronine (T3, 1 nM) for three days. FGF1 and FGF10 were used at a dosage of 50 ng/mL, 100 ng/mL or 300 ng/mL. mRNA was isolated and UCP1 and PTGS2 expression levels were evaluated by quantitative reverse transcription polymerase chain reaction (Q-RT-PCR) analysis. All experiments were performed triplicate and the data are presented as mean+/−SEM.
To test the role of specific prostaglandins (PGs) in activating UCP1 expression, WT-1 brown adipocytes were pretreated with PGE2, PGI2 and FGF6 for 24 hours. mRNA expression levels of UCP1, PTGS2, LDHA, PDK1 and PKM2 were then measured.

[4] = FGF21 50 and 500 ng/mL, BMP7 3.3 nM, with insulin and T3
[5] = 50 ng/mL and 200 ng/mL with insulin and T3, three days
[6] = 50, 100 or 300 ng/mL with insulin and T3, three days, FGF1 effect at 300 ng/ml

B1: BMP7: bone morphogenetic protein 7, rhBMP7 provided by Stryker Regenerative Medicine (protein, UniProt P18075 293-431, looked up)
Bone morphogenetic protein 7: STGSKQRSQNRSKTPKNQEALRMANVAENSSSDQRQACKKHELYVSFRDLGWQDWIIAPEGYAAYYCEGECAFPLNSYMNATNHAIVQTLVHFINPETVPKPCCAPTQLNAISVLYFDDSSNVILKKYRNMVVRACGCH
PTGS2 mRNA expression in cells undergoing adipocyte differentiation [1]: minimal levels | UCP1 mRNA expression in cells undergoing adipocyte differentiation [1]: minimal levels | UCP1 expression level at day 7 [2, 4]: only minimal amounts | UCP1 expression level at days 1, 2 and 5 [2, 4]: did not express detectable amounts of UCP1

B2: FGF4: fibroblast growth factor 4, recombinant human, R&D Systems (protein, listed as Homo sapiens)
chain: MSGPGTAAVALLPAVLLALLAPWAGRGGAAAPTAPNGTLEAELERRWESLVALSLARLPVAAQPKEAAVQSGAGDYLLGIKRLRRLYCNVGIGFHLQALPDGRIGGAHADTRDSLLELSPVERGVVSIFGVASRFFVAMSSKGKLYGSPFFTDECTFKEILLPNNYNAYESYKYPGMFIALSKNGKTKKGNRVSPTMKVTHFLPRL
PTGS2 mRNA expression relative to the control [3]: increased | UCP1 mRNA expression [2, 5]: high levels of UCP1 mRNA expression

B3: FGF22: fibroblast growth factor 22 (protein, listed as Homo sapiens)
chain: MRRRLWLGLAWLLLARAPDAAGTPSASRGPRSYPHLEGDVRWRRLFSSTHFFLRVDPGGRVQGTRWRHGQDSILEIRSVHVGVVVIKAVSSGFYVAMNRRGRLYGSRLYTVDCRFRERIEENGHNTYASQRWRRRGQPMFLALDRRGGPRPGGRTRRYHLSAHFLPVLVS
UCP1 mRNA expression [2, 5]: not detectably induced

B4: FGF17: fibroblast growth factor 17 (protein, listed as Homo sapiens)
chain: MGAARLLPNLTLCLQLLILCCQTQGENHPSPNFNQYVRDQGAMTDQLSRRQIREYQLYSRTSGKHVQVTGRRISATAEDGNKFAKLIVETDTFGSRVRIKGAESEKYICMNKRGKLIGKPSGKSKDCVFTEIVLENNYTAFQNARHEGWFMAFTRQGRPRQASRSRQNQREAHFIKRLYQGQLPFPNHAEKQKQFEFVGSAPTRRTKRTRRPQPLT
PTGS2 mRNA expression relative to the control [3]: increased

B5: FGF18: fibroblast growth factor 18 (protein, listed as Homo sapiens)
chain: MYSAPSACTCLCLHFLLLCFQVQVLVAEENVDFRIHVENQTRARDDVSRKQLRLYQLYSRTSGKHIQVLGRRISARGEDGDKYAQLLVETDTFGSQVRIKGKETEFYLCMNRKGKLVGKPDGTSKECVFIEKVLENNYTALMSAKYSGWYVGFTKKGRPRKGPKTRENQQDVHFMKRYPKGQPELQKPFKYTTVTKRSRRIRPTHPA
PTGS2 mRNA expression relative to the control [3]: increased

B6: FGF5: fibroblast growth factor 5, recombinant human, R&D Systems (protein, listed as Homo sapiens)
chain: MSLSFLLLLFFSHLILSAWAHGEKRLAPKGQPGPAATDRNPRGSSSRQSSSSAMSSSSASSSPAASLGSQGSGLEQSSFQWSPSGRRTGSLYCRVGIGFHLQIYPDGKVNGSHEANMLSVLEIFAVSQGIVGIRGVFSNKFLAMSKKGKLHASAKFTDDCKFRERFQENSYNTYASAIHRTEKTGREWYVALNKRGKAKRGCSPRVKPQHISTHFLPRFKQSEQPELSFTVTVPEKKKPPSPIKPKIPLSAPRKNTNSVKYRLKFRFG
expression of UCP1 [2]: not induced

B7: FGF10: fibroblast growth factor 10, keratinocyte growth factor 2 (protein, listed as Homo sapiens)
chain: MWKWILTHCASAFPHLPGCCCCCFLLLFLVSSVPVTCQALGQDMVSPEATNSSSSSFSSPSSAGRHVRSYNHLQGDVRWRKLFSFTKYFLKIEKNGKVSGTKKENCPYSILEITSVEIGVVAVKAINSNYYLAMNKKGKLYGSKEFNNDCKLKERIEENGYNTYASFNWQHNGRQMYVALNGKGAPRRGQKTRRKNTSAHFLPMVVHS
PTGS2 mRNA expression [3, 6]: did not induce expression | expression of UCP1 [2]: not induced | UCP1 mRNA expression [2, 6]: did not induce expression
